The results in this text go back to patent publication US20100297149A1 (ATYR PHARMA, published 2010).

The target in the test is T1, human CCR1-EGFP expressed on HEK293T cells (human, UniProt P32246 1-355).
T1 construct: whole, on cells; Transiently transfected HEK293T cells; the fusion localized to the cell membrane; also called CCR1-expressing cells; not shown: EGFP from the pEGFP-N1 vector
T1 sequence (looked up): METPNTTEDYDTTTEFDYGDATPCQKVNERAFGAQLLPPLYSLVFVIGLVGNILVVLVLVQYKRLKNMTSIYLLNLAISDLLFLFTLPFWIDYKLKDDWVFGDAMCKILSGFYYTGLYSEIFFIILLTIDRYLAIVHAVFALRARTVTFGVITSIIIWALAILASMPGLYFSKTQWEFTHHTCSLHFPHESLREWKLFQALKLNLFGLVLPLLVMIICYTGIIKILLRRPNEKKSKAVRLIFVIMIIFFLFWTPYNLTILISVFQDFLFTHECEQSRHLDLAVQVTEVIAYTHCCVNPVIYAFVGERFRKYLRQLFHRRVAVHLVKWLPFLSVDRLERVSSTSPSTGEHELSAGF
In words: flow cytometry (FACS) on CCR1-EGFP-transfected HEK293T cells, detection with FITC anti-tag antibody. The procedure: Human CCR5 was amplified and cloned into to pEGFP-N1 vector. Human CCR1 receptor, also a CC chemokine receptor, was included as a control. HEK293T cells were transfected with CCR5-EGFP or CCR1-EGFP plasmids and 1d after transfection, cells were washed with PBS and detached from culture dish by trypsin. 1×10″6 cells were put into FACS tube in 100 μl complete media and kept on ice (cells were kept cold for remainder of the assay). Cells were treated with recombinant HRS-SV11 protein for 45′. Then cells were washed once with 1 ml staining buffer (1×PBS+3% FBS) and spin down at 4° C., 400×g for 10′. After wash, cells were incubated with 0.3 μl primary anti-V5-FITC antibody (3 μg/ml) in 100 μl staining buffer for 30′ in dark (kept in dark for remainder of the assay). Cells were then washed twice with 1 ml staining buffer, 4° C., 400×g for 10′ and spun down. After the final wash, cell pellets were resuspended in 800 μl staining buffer and analyzed immediately by FACS.

B1: recombinant HRS-SV11 splice variant polypeptide of human histidyl-tRNA synthetase with C-terminal polyhistidine tag (6xHis) (ligand)
chain: MAERAALEELVKLQGERVRGLKQQKASAELIEEEVAKLLKLKAQLGPDESKQKFVLKTPKALEEKIRTTETQVLVASAQKKLLEERLKLVSELWDAGIKAELLYKKNPKLLNQLQYCEEAGIPLVAIIGEQELKDGVIKLRSVTSREEVDVRREDLVEEIKRRTGQPLCICHHHHHH
notes: Expressed in E. coli from pET20b (EcoRV/NotI, no stop codon) and purified on Ni-NTA; By gel filtration it switches between monomer and dimer; also called wild type HRS-SV11
In the case of B1, the binding result is “no binding”.
